According to patent US7326418B2, “Identification of novel factors that block programmed cell death or apoptosis by targeting JNK” (University of Chicago, priority 2001, dated 2008):
Entries after “also recorded” stand apart in the source; their conditions may differ. Blank lines part the entries; values can stand above or below the molecule they belong to.

Biological target: T1, JNKK2/MKK7 (Homo sapiens, UniProt O14733, Q133P/Q94H)
T1 construct: expressed in transfected cells; host or cells: HEK-293, TNFα-treated or untreated; anti-FLAG immunoprecipitate
T1 sequence (O14733 1-401 Q94H/Q133P limits assumed): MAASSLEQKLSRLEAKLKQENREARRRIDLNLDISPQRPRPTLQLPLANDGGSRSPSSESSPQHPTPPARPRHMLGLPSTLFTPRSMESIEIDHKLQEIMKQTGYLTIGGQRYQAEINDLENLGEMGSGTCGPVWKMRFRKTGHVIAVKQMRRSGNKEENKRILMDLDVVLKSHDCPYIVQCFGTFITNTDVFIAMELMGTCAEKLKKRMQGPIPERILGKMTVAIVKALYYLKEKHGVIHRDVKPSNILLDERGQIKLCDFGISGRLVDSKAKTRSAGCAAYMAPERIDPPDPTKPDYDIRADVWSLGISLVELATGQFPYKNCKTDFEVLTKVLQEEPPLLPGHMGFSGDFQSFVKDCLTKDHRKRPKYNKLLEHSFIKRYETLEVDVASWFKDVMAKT
Assay: Kinase assay of immunoprecipitated FLAG-JNKK2/MKK7 (GST-JNK1 substrate) pre-incubated with recombinant Gadd45β proteins or peptides
Format: biochemical
Conditions: for inhibition of JNKK2/MKK7 activity (GST-JNK1 phosphorylation): FLAG-JNKK2 from 293 cells, 10 min pre-incubation with increasing concentrations of recombinant protein
Description: Next, the functional consequences, in vitro, of the physical interactions of Gadd45β with kinases in the JNK pathway were assessed. Murine and human, full-length Gadd45J3 proteins were purified from E. coli as GST-Gadd45β and His6-tagged Gadd45β (His6 disclosed as SEQ ID NO: 46), respectively, according to standard procedures. Prior to employing these proteins in in vitro assays, purity of all recombinant polypeptides was assured by >98%, by performing Coomassie blue staining of SDS polyacrylamide gels. Then, the ability of these proteins, as well as of control GST and His6-EF3 (His6 disclosed as SEQ ID NO: 46)proteins, to inhibit kinases in the JNK pathways was monitored in vitro. FLAG-tagged JNKK2, JNKK1, MKK3, and ASK1 were immunoprecipitated from transiently transfected 293 cells using anti-FLAG antibodies and pre-incubated for 10 minutes with increasing concentrations of recombinant proteins, prior to the addition of specific kinase substrates (i.e. GST-JNK1 with JNKK1 and JNKK2; GST-p38[…] with MKK3; GST-JNNK1 or GST-JNKK2 with ASK1). […] These findings indicate that, upon binding to Gadd45β, JNKK2 is effectively inactivated.
A question was whether Gadd45β inhibited active MKK7, in vitro. FLAG-MKK7 was immunoprecipitated from TNFα-treated or untreated 293 cells, and kinase assays were performed in the presence of purified His6-Gadd45β (His6 disclosed as SEQ ID NO: 46), GST-Gadd45β, or control proteins (FIG. 28d; see also FIG. 28g). […] Consistent with the in vivo findings (FIG. 27), the inhibitory activity of Gadd45β was specific. […] Indeed, the effects of Gadd45β on MKK7 phosphorylation by TNFα may be due inhibition of the MKK7 ability to auto-phoshorylate and/or to serve as substrate for upstream kinases. Altogether, the findings identify MKK7 as a target of Gadd45β, and of NF-[…]B, in the JNK cascade. Of interest, MKK7 is a selective activator of JNK, and its ablation abolishes JNK activation by TNFα. Thus, blockade of MKK7 is sufficient on its own to explain the effects of Gadd45β on JNK signaling—i.e. its specific and near-complete suppression of this signaling.
Active MKK7 was immunoprecipitated from TNFα-activated 293 cells and MKK7 kinase assays were performed using GST-JNK1 substrates and pure recombinant Gadd45β polypeptides (FIG. 37B; a schematic diagram representing the Gadd45βpolypeptides used is shown in FIG. 37A). […] MKK7 kinase assays were performed as in FIG. 37B, except that pure synthetic Gadd45, peptides (whose sequences are shown in FIG. 37C) were used instead of pure recombinant Gadd45β proteins. The amino acid region between amino acids 58 and 77 of Gadd45βis used for the Gadd45β-mediated inhibition of MKK7. […]

B1: GST-Gadd45β: full-length murine Gadd45β directly fused to GST, purified from E. coli (protein)
chain: MTLEELVASDNAVQKMQAVTAAVEQLLVAAQRQDRLTVGVYEAAKLMNVDPDSVVLCLLAIDEEEEDDIALQIHFTLIQSFCCDNDIDIVRVSGMQRLAQLLGEPAETLGTTEARDLHCLLVTNCHTDSWKSQGLVEVASYCEESRGNNQWVPYISLEER
modifications: left off: a dimerising Fc or GST
notes: full-length murine Gadd45β directly fused to GST, purified from E. coli
inhibition of JNKK2/MKK7 activity (GST-JNK1 phosphorylation): blocked GST-JNK1 phosphorylation by MKK7, in a dose-dependent manner; also recorded: effectively suppressed

JNKK2 auto-phosphorylation (in vitro): inhibited
B2: Gadd45β: purified recombinant His6-tagged Gadd45β protein; also used generically for the recombinant Gadd45β proteins (protein, UniProt O75293 1-160, looked up)
Growth arrest and DNA …: MTLEELVACDNAAQKMQTVTAAVEELLVAAQRQDRLTVGVYESAKLMNVDPDSVVLCLLAIDEEEEDDIALQIHFTLIQSFCCDNDINIVRVSGMQRLAQLLGEPAETQGTTEARDLHCLLVTNPHTDAWKSHGLVEVASYCEESRGNNQWVPYISLQER
modifications: His6 tag
notes: purified recombinant His6-tagged Gadd45β protein; also used generically for the recombinant Gadd45β proteins

B3: His6-Gadd45β: human full-length Gadd45β purified from E. coli as His6-tagged protein (protein, UniProt O75293 1-160, looked up)
chain: B2 Growth arrest and DNA …
modifications: full-length His6 tag
notes: human full-length Gadd45β purified from E. coli as His6-tagged protein
inhibition of JNKK2/MKK7 activity (GST-JNK1 phosphorylation): blocked GST-JNK1 phosphorylation by MKK7, in a dose-dependent manner; also recorded: effectively suppressed
